Source: patent publication CN111320691A (CHENG LIANSHENG; LIU JING, dated 2020)

How the values were obtained:
[1] = target: T1, 人4-1BB (h4-1BB) antigen protein, coated on ELISA plates (human, UniProt Q07011 24-186); assay: ELISA, antigen coated at 1 ug/ml, antibody 1000 to 0.24 ng/ml
T1 construct: Soluble antigen for plate coating; also called 人抗原4-1BB; 抗原人H4-1BB蛋白

[2] = target: T2, 人4-1BB on CHO-K1 cells (CHO-h4-1BB) (human, UniProt Q07011 24-255); assay: FACS on CHO-h4-1BB cells, antibody 20 to 0.027 ug/ml
T2 construct: whole, on cells; also called 高表达人4-1BB的CHO-K1细胞株
T2 sequence (Q07011 24-255): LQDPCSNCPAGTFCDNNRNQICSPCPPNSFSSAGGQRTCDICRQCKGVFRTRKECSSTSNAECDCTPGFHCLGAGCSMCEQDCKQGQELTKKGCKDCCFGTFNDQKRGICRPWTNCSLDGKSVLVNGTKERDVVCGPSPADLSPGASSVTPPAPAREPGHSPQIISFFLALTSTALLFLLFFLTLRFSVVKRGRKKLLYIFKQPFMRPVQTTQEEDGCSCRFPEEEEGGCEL

T1 sequence (Q07011 24-186 limits assumed): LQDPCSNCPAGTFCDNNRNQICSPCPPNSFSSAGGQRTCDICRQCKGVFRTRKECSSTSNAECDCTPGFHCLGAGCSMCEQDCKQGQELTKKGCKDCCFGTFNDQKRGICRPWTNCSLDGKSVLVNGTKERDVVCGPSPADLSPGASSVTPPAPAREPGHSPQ

B1: 单克隆抗体HKB6 (抗人4-1BB抗体) (antibody, mouse IgG1, kappa, V domains shown)
VH: QVQLKESGPGLVAPSQSLSITCTVSGFSLTTYDISWIRQPPGKGLEWLGVIWTGGGTNYNSTFMSRLSINKDNSKSQVFLKMNSLQTDDTAIYYCVRVDYWGQGTSVTVSS
VL: DVVMTQTPLSLPVSLGDQASISCRSSQSLVHSNGNTYLHWFLQKPGQSPKLLIYKVSNRFPGVPDRFSGSGSGTDFTLKISRVEAEDLGVYFCSQNTHVPWTFGGGTKLEIKR
notes: Whole antibody from a mouse hybridoma, purified on Protein G; also called HKB6单克隆抗体
**Q.** Which results are given for B1?
**A.** binding result [1]: binds; binding result [2]: binds
